Assay results as given in article doi:10.1101/755678.

Experiments:
[1] = target: RagA (TonB dependent transporter, PG_0185) of P. gingivalis W83 (Porphyromonas gingivalis W83); assay: crystal structure
[2] = target: RagA (TonB dependent transporter, PG_0185) of P. gingivalis W83 (Porphyromonas gingivalis W83); assay: cryo-EM structure
[3] = target: RagB from ATCC 33277, mature part, C-terminal His6-tag, expressed in E. coli (Porphyromonas gingivalis ATCC 33277); assay: MST
[4] = target: RagAB complex from wild-type P. gingivalis W83, 8×His-tag on the C terminus of RagB (Porphyromonas gingivalis W83); assay: MST
[5] = target: RagB from W83, mature part, C-terminal His6-tag, expressed in E. coli (Porphyromonas gingivalis W83); assay: MST

| Molecule | stoichiometry N [1] | stoichiometry N [2] | Kd [3] [µM] | Kd [4] [µM] | Kd [5] [µM] |
| --- | --- | --- | --- | --- | --- |
| RagA (TonB dependent transporter, PG_0185) of P. gingivalis W83 (natural protein) | 2 | 2 |  |  |  |
| KATAEALKKALEEAGAEVELK [P21 peptide (21 residues from the C-terminus of ribosomal protein L7)] |  |  | 700 | 0.4 | 2000 |
| NIFKKNVGFKK [P4 peptide (unlabelled)] |  |  | 70 |  | 2000 |
